Drawing on PMC11095456, this text covers response for seven substances.

Assay [1] concerns the target CTBP2 MAPPIT prey, wild type (UniProt P56545). The assay can be described thus: MAPPIT. Particulars: HEK293T cells; +Epo; cotransfected with CTBP2; parent: est. 32; read off a plot; scale: % of maximum induction.
Assay [2] addresses EVI1 MAPPIT bait, wild type. Description: MAPPIT. Particulars: HEK293T cells; +Epo; cotransfected with EVI1; parent: est. 29; read off a plot; scale: % of maximum induction.

With EVI1 MAPPIT bait, wild type PFDLT SWAP, the response in assay [1] was 3.

As to EVI1 MAPPIT bait, wild type PFDLT>PFAST, the response in assay [1] turned out to be 30.

Take EVI1 MAPPIT bait, wild type PLDLS>PLASS: the response in assay [1] is 3. With “CTBP2 MAPPIT prey, wild type (from UniProt P56545) V72R”, the response in assay [2] came out at 11.

For EVI1 MAPPIT bait, wild type PLDLS SWAP, in assay [1], the response came to 5.

Consider “CTBP2 MAPPIT prey, wild type (from UniProt P56545) A58E; V72R”, for which, in assay [2], the response is 10. On the same count and under the same terms, the result for “CTBP2 MAPPIT prey, wild type (from UniProt P56545) A58E” reads 29.
